Results published in article PMC3217041 (Steroids, 2011).

Target: the molecule itself
Assay: crystal structure

B1: Human placental aromatase (cytochrome P450 aromatase, CYP19A1) (enzyme, UniProt P11511 1-503, looked up)
chain: MVLEMLNPIHYNITSIVPEAMPAATMPVLLLTGLFLLVWNYEGTSSIPGPGYCMGIGPLISHGRFLWMGIGSACNYYNRVYGEFMRVWISGEETLIISKSSSMFHIMKHNHYSSRFGSKLGLQCIGMHEKGIIFNNNPELWKTTRPFFMKALSGPGLVRMVTVCAESLKTHLDRLEEVTNESGYVDVLTLLRRVMLDTSNTLFLRIPLDESAIVVKIQGYFDAWQALLIKPDIFFKISWLYKKYEKSVKDLKDAIEVLIAEKRRRISTEEKLEECMDFATELILAEKRGDLTRENVNQCILEMLIAAPDTMSVSLFFMLFLIAKHPNVEEAIIKEIQTVIGERDIKIDDIQKLKVMENFIYESMRYQPVVDLVMRKALEDDVIDGYPVKKGTNIILNIGRMHRLEFFPKPNEFTLENFAKNVPYRYFQPFGFGPRGCAGKYIAMVMMKAILVTLLRRFHVKTLQGQCVESIQKIHDLSLHPDETKNMLEMIFTPRNSDRCLEH
- binding result: binds
